These results are taken from publication PMC11953334, “Substrates bind to residues lining the ring of asymmetrically engaged bacterial proteasome activator Bpa” (Nature Communications, 2025).

For this assay, the target named is bacterial proteasome activator Bpa, full-length, wild-type (M. tuberculosis H37Rv) (UniProt P9WKX3). In words: MST.

As to “heat shock repressor HspR, wild-type (natural protein)”, the Kd came to 4.3 µM.

The term Kd denotes the concentration at which binding is half-saturated.
